In assay [1] the target is T1, human fibronectin (human, UniProt P02751). Briefly: solid-phase competition, 125I-14 kDa fragment on coated fibronectin.
For assay [2], the target named is T1, human fibronectin. Description: solid-phase competition, 125I-fibronectin on coated fibronectin.

In the case of NAPQPSHISKYILRWRPKNSVGRWKEATIPG [polypeptide P1], the IC50 with human fibronectin [1] was 1000 nM; with human fibronectin [2], around 1000 nM.

The values are drawn from US5837813, “Fibronectin Type III polypeptides” (La Jolla Cancer Research Foundation, dated 1998).
